In the supplement of paper PMC7877785:
± gives the uncertainty stated by the source.

Assay: self-splicing fitness, log relative to wild type (ln ratio); higher = more splicing; Tetrahymena group I intron in knt gene, E. coli kanamycin selection, DiMSum; sequences stand for … in CUCUCU…GGAGGGAAAAGUUAUCAGGCAUGCACCUGGUAGCUAGUCUUUAAACCAAUAGAUUGCAUCGGUUUAAAAGGCAAGACCGUCAAAUUGCGGGAAAGGGGUCAACAGCCGUUCAGUACCAAGUCUCAGGGGAAACUUUGAGAUGGCCUUGCAAAGGGUAUGGUAAUAAGCUGACGGACAUGGUCCUAACCACGCAGCCAAGUCCUAAGUCAACAGAUCUUCUGUUGAUAUGGAUGCAGUUCACAGACUAAAUGUCGGUCGGGGAAGAUGUAUUCUUCUCAUAAGAUAUAGUCGGACCUCUCCUUAAUGGGAGCUAGCGGAUGAAGUGAUGCAACACUGGAGCCGCUGGGAACUAAUUUGUAUGCGAAAGUAUAUUGAUUAGUUUUGGAGUACUCGUGGUCG
Outline: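 A randomised library covering all eight P1ex-region intron nucleotides was built with the intron in the knt kanamycin-resistance gene on pET-22b(+) and held in E. coli BL21(DE3). Cells were grown overnight at 37°C or 30°C on LB agar, with or without 25 μg/mL kanamycin, plus 100 μg/mL carbenicillin, 50 μM IPTG and 0.2% rhamnose, and pooled colonies were amplicon-sequenced on an Illumina HiSeq 2500. DiMSum fitness is the error-weighted combination of wild-type-normalised replicate fold changes, kanamycin versus none.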

Sequence | self-splicing fitness (ln) (30 °C) | self-splicing fitness (ln) (37 °C)
CCUUAGCAAUAUUACGGUGG | -2.71 ± 0.15 | -1.36 ± 0.15
CCUUAGCAAUAUUACGUAAG | -1.28 ± 0.097 | -0.938 ± 0.12
CGAAAGCAAUAUUACGAAAC | -2.85 ± 0.19 | -2.14 ± 0.21
CGAAAGCAAUAUUACGAAAU | -2.32 ± 0.19 | -2.96 ± 0.24
CGAAAGCAAUAUUACGAACG | -1.08 ± 0.13 | -0.291 ± 0.14
CGAAAGCAAUAUUACGACAG | -0.552 ± 0.068 | -0.0312 ± 0.081
CGAAAGCAAUAUUACGCACC | -1.17 ± 0.14 | -0.396 ± 0.19
CGAAAGCAAUAUUACGCAUG | -1.56 ± 0.1 | -0.368 ± 0.11
CGAAAGCAAUAUUACGCGAG | -2.88 ± 0.25 | -2.26 ± 0.22
CGAAAGCAAUAUUACGGAUU | -3.5 ± 0.2 | -2.63 ± 0.19
CGAAAGCAAUAUUACGGCAU | -2.26 ± 0.12 | -0.29 ± 0.089
CGAAAGCAAUAUUACGGCCC | -1.42 ± 0.19 | -0.196 ± 0.35
CGAAAGCAAUAUUACGGGAG | -3.09 ± 0.12 | -2.56 ± 0.13
CGAAAGCAAUAUUACGGGCA | -1.85 ± 0.11 | -0.138 ± 0.1
CGAAAGCAAUAUUACGGGGU | -3.65 ± 0.21 | -1.94 ± 0.18
CGAAAGCAAUAUUACGGUGC | -3.09 ± 0.17 | -2.65 ± 0.21
CGAAAGCAAUAUUACGGUGU | -2.55 ± 0.088 | -1.66 ± 0.11
CGAAAGCAAUAUUACGUCUG | -0.362 ± 0.066 | 0.364 ± 0.078
CGAAAGCAAUAUUACGUGAA | -2.52 ± 0.092 | -1.17 ± 0.12
CGAAAGCAAUAUUACGUGUU | -4.1 ± 0.18 | -2.54 ± 0.17
CGAAAGCAAUAUUACGUUAA | -2.27 ± 0.15 | -1.42 ± 0.12

Sequence | self-splicing fitness (ln) (30 °C) | self-splicing fitness (ln) (37 °C)
CGAAAGCAAUAUUACGUUGG | -1.66 ± 0.08 | -0.961 ± 0.097
CGACAGCAAUAUUACGAAGA | -2.29 ± 0.17 | -2.09 ± 0.16
CGACAGCAAUAUUACGAAGU | -4.32 ± 0.37 | -3.18 ± 0.43
CGACAGCAAUAUUACGACAC | -1.96 ± 0.13 | -1.97 ± 0.22
CGACAGCAAUAUUACGACCG | -0.981 ± 0.1 | 0.0442 ± 0.18
CGACAGCAAUAUUACGACGU | -1.07 ± 0.07 | 0.0477 ± 0.086
CGACAGCAAUAUUACGAGCG | -2.02 ± 0.13 | -0.549 ± 0.099
CGACAGCAAUAUUACGAUUU | -2.34 ± 0.075 | -1.26 ± 0.087
CGACAGCAAUAUUACGCACG | -3.74 ± 0.4 | -2.31 ± 0.35
CGACAGCAAUAUUACGGCAA | -2.12 ± 0.21 | -1.58 ± 0.17
CGACAGCAAUAUUACGGUGG | -1.73 ± 0.097 | -0.756 ± 0.1
CGACAGCAAUAUUACGUAGG | -0.919 ± 0.062 | -0.934 ± 0.076
CGACAGCAAUAUUACGUCGC | -3.71 ± 0.25 | -3.74 ± 0.33
CGACAGCAAUAUUACGUCGU | -4.07 ± 0.19 | -2.29 ± 0.11
CGACAGCAAUAUUACGUCUG | -1.54 ± 0.083 | -0.38 ± 0.092
CGACAGCAAUAUUACGUGGU | -3.79 ± 0.18 | -3.34 ± 0.17
CGACAGCAAUAUUACGUUAA | -3.04 ± 0.22 | -2.19 ± 0.18
CGACAGCAAUAUUACGUUGU | -3.46 ± 0.1 | -3.25 ± 0.15
CGAGAGCAAUAUUACGAAGG | -3.4 ± 0.22 | -2.69 ± 0.32
CGAGAGCAAUAUUACGACGC | -1.91 ± 0.42 | 
CGAGAGCAAUAUUACGACGG | -0.704 ± 0.16 | -0.616 ± 0.18
